Literature values, collected in publication PMC3499705.
Read-outs that look alike come from different tables or passages of the source.

Legend:
[1] = target: VPAC1 receptor N-terminal ectodomain (Homo sapiens) (UniProt P32241); test: intrinsic tryptophan fluorescence
[2] = target: VPAC1 receptor N-terminal ectodomain (Homo sapiens) (UniProt P32241)
VIP (Homo sapiens) = VIP (Homo sapiens) (UniProt P01282)
PHM PHM (Homo sapiens) = PHM PHM (Homo sapiens) (UniProt P01282); test: intrinsic tryptophan fluorescence
Secretin (Homo sapiens) = Secretin (Homo sapiens) (UniProt P09683); test: intrinsic tryptophan fluorescence
[3] = target: PACAP27 PACAP27 (Homo sapiens) (UniProt P18509); test: intrinsic tryptophan fluorescence
[4] = target: Helodermin (Heloderma suspectum) (UniProt P04204); test: intrinsic tryptophan fluorescence
GRF (Homo sapiens) = GRF (Homo sapiens) (UniProt P01286); test: intrinsic tryptophan fluorescence
[5] = target: VIP2-28 2-28 (Homo sapiens) (UniProt P01282); test: intrinsic tryptophan fluorescence
[6] = target: VIP6-28 6-28 (Homo sapiens) (UniProt P01282); test: intrinsic tryptophan fluorescence

For secretin (from UniProt P09683), the Kd [1] is given as 16000 nM.

In the case of VIP (from UniProt P01282), the Kd [2] is listed as 540 nM.

In the case of PHM PHM (from UniProt P01282), the Kd [1] is listed as 8000 nM.

In the case of VIP2-28 2-28 (from UniProt P01282), the Kd [1] is given as 850 nM.

In the case of “VPAC1 receptor 31-144 (from UniProt P32241)”, the Kd (VIP (Homo sapiens)) is given as 540 nM, the Kd (PHM PHM (Homo sapiens)) is given as 8000 nM and the Kd (Secretin (Homo sapiens)) is given as 16000 nM. For the same substance, the Kd [3] was 570 nM, the Kd [4] was 2540 nM and the Kd (GRF (Homo sapiens)) was 10100 nM. For the same substance, the Kd [5] was 850 nM and the Kd [6] was 850 nM.

In the case of GRF (from UniProt P01286), the Kd [1] is given as 10100 nM.

For PACAP27 PACAP27 (from UniProt P18509), the Kd [1] is listed as 570 nM.

For helodermin (from UniProt P04204), the Kd [1] is given as 2540 nM.
